Experimental data from US20210338656A1, “IMMUNOSTIMULATORY AGENTS IN COMBINATION WITH ANGIOGENESIS INHIBITORS” (Alkermes Pharma Ireland Limited, priority 2020, published 2021).

How the values were obtained:
[1] = tested on: MC38 murine colon carcinoma cells; test: Anti-tumor efficacy in subcutaneous MC38 syngeneic tumor model (tumor growth, survival); type: in vivo, mouse; settings: for tumor growth inhibition (TGI): Day 11
Description: The characteristics of each animal study group, the administration of the test articles and timing, the collection of samples and the overall study design are as shown in Tables 1 and 2:
(68-72° F.) and 40-60% humidity.
Additional aliquots were stored at 4° C. for use within 72 hours of formulation. Just prior to administration, dosing solutions were remixed with gentle inversion.
Group mean tumor volumes were plotted versus time. When an animal exited the study because of tumor size or TR death, its final recorded tumor volume was included with the data used to calculate the mean volume. Mean tumor volumes were calculated for a group until 50% of the animals had exited the study. Kaplan-Meier plots show the percentage of animals in each group remaining in the study versus time.

[2] = tested on: gene expression in MC38 tumors; test: RNA-Seq gene expression in MC38 tumors, Day 10; type: in vivo, mouse
Description: On Day 10 spleens and tumors were collected and weighed from all animals in Groups 7 through 12 and weighed prior to processing. Tissues from four animals in each group were processed to single cell suspensions for flow cytometry analysis at CRL-NC (described below). Tissues from the remaining six animals in each group were preserved in RNAlater, stored at −80° C.
Tumors and spleens were dissected on the appropriate day of the study and were weighed and immediately placed in RNAlater Stabilizing Reagent to preserve the tissue and stored overnight at 4 deg C. The following day, the samples were removed from RNA later and snap frozen and placed at −80 deg C.
Unless otherwise indicated, everything was done on ice and the materials were prechilled on ice. The tissues were homogenized in TRIzol in Precellys tissue grinding tubes. After homogenization, the TRIzol solutions were transferred to 1.5 ml tubes and spun for 5 min at 12,000×g to eliminate the insoluble material. The TRIzol solutions were then transferred to Phasemaker tubes. Chloroform was added, the tubes were capped, and shaken vigorously for 15 seconds. The samples were then incubated at room temperature for 2-15 minutes and centrifuged at 12,000×g for 5 minutes. The upper, aqueous phase was then transferred to a new tube and an equal volume of 70% ethanol was added and it was vortexed. The liquid was then transferred to Qiagen RNeasy columns and centrifuged at 8000×g. DNAse was added to each tube to eliminate any residual DNA. The columns were then washed and eluted as directed by the kit. The RNA concentrations were determined using a Qubit.
Libraries were prepared for sequencing by using the Mouse Transcriptome Ion AmpliSeq Library Preparation on the Ion Chef System as directed by the manufacturer. Eight samples of purified RNA and 8 unique IonCode molecular barcodes were added to a 96 well plate and were prepared at a time. After the libraries were prepared, they were templated and loaded onto an Ion Torrent 540 chip using the Ion 540 Chef Kit from ThermoFisher. The 540 chips were then loaded into a Gene Studio S5 sequencer and sequenced.
Raw sequencing data was processed by Torrent Suite (v5.8.0) software that came with the Gene Studio sequencer (ThermoFisher). For each sample, this program summarized gene expression in a CHP file. The CHP files were then loaded into the Transcriptome Analysis Console (TAC) program (ThermoFisher).

[3] = T cell signaling gene, MC38 tumors Day 10 RNA-Seq, lucitanib 10 mg/kg po, SEQ ID NO. 2 3 mg/kg sc
[4] = Type I/II interferon pathway gene, MC38 tumors Day 10 RNA-Seq, lucitanib 10 mg/kg po, SEQ ID NO. 2 3 mg/kg sc
[5] = antigen presentation gene, MC38 tumors Day 10 RNA-Seq, lucitanib 10 mg/kg po, SEQ ID NO. 2 3 mg/kg sc

B1: SEQ ID NO: 2: mouse ortholog construct (murine surrogate) of the circularly permuted IL-2/IL-2Rα fusion protein of SEQ ID NO: 1 (protein)
chain: SKSFQLEDAENFISNIRVTVVKLKGSDNTFECQFDDESATVVDFLRRWIAFCQSIISTSPQGGSSSTQQQQQHLEQLLMDLQELLSRMENYRNLKLPRMLTFKFYLPKQATELKDLQCLEDELGPLRHVLDLTQGSGGGSELCLYDPPEVPNATFKALSYKNGTILNCECKRGFRRLKELVYMRCLGNSWSSNCQCTSNSHDKSRKQVTAQLEHQKEQQTTTDMQKPTQSMHQENLTGHCREPPPWKHEDSKRIYHFVEGQSVHYECIPGYKALQRGPAISICKMKCGKTGWTQPQLTCVDGSHHHHHH
modifications: Mouse cpIL-2IL-2R-alpha
[1]; SEQ ID NO: 2 monotherapy 1.5 mg/kg s.c. once every 3 days
  tumor growth inhibition (TGI): 25%
[1]; SEQ ID NO: 2 monotherapy 3 mg/kg s.c. once every 3 days
  tumor growth inhibition (TGI): 51%
[1]; SEQ ID NO: 2 monotherapy 1.5 mg/kg s.c.
  median survival time: 18 days
[1]; SEQ ID NO: 2 monotherapy 3 mg/kg s.c.
  median survival time: 22 days
[1]; SEQ ID NO: 2 monotherapy arms
  complete response (number): 1
[1]; either dose (1.5 or 3 mg/kg) of SEQ ID NO: 2 monotherapy, groups pooled
  durable complete tumor regressions: 1/20
[1]; treatment arm summaries
  tumor growth outcome (summary in words): modest tumor growth inhibition
[2]; [3]
  Cd3e mean expression value relative to vehicle group: 3.81
  Cd4 mean expression value relative to vehicle group: 1.46
  Cd8a mean expression value relative to vehicle group: 4.64
  Cd8b1 mean expression value relative to vehicle group: 8.03
  Cd28 mean expression value relative to vehicle group: 2.86
  Cd247 mean expression value relative to vehicle group: 3.95
  Cd3d mean expression value relative to vehicle group: 5.96
  Ctla4 mean expression value relative to vehicle group: 0.60
  H2-Aa mean expression value relative to vehicle group: 1.27
  H2-Ab1 mean expression value relative to vehicle group: 2.25
  H2-Eb1 mean expression value relative to vehicle group: 1.29
  Icos mean expression value relative to vehicle group: 1.69
  Ifng mean expression value relative to vehicle group: 2.06
  Il2 mean expression value relative to vehicle group: 0.31
  Lck mean expression value relative to vehicle group: 4.42
  Lcp2 mean expression value relative to vehicle group: 0.23
  Nfatc2 mean expression value relative to vehicle group: 0.67
  Pdcd1 mean expression value relative to vehicle group: 2.42
  Ptpn22 mean expression value relative to vehicle group: 2.19
  Ptprc mean expression value relative to vehicle group: 2.32
  Zap70 mean expression value relative to vehicle group: 2.63
[2]; [4]
  B2m mean expression value relative to vehicle group: 0.03
  Bst2 mean expression value relative to vehicle group: 0.08
  Cd44 mean expression value relative to vehicle group: −0.19
  Ciita mean expression value relative to vehicle group: 1.36
  Fcgr1 mean expression value relative to vehicle group: 1.12
  Gm10499 mean expression value relative to vehicle group: −0.02
  H2-Aa mean expression value relative to vehicle group: 1.27
  H2-Ab1 mean expression value relative to vehicle group: 2.25
  H2-Eb1 mean expression value relative to vehicle group: 1.29
  H2-K1 mean expression value relative to vehicle group: 0.04
  H2-Q10 mean expression value relative to vehicle group: −0.28
  Icam1 mean expression value relative to vehicle group: 0.88
  Ifi35 mean expression value relative to vehicle group: 0.38
  Ifit2 mean expression value relative to vehicle group: 0.54
  Ifitm1 mean expression value relative to vehicle group: −0.13
  Ifna2 mean expression value relative to vehicle group: 0
  Ifnar1 mean expression value relative to vehicle group: 0.35
  Ifnar2 mean expression value relative to vehicle group: 0.2
  Ifnb1 mean expression value relative to vehicle group: −0.16
  Ifng mean expression value relative to vehicle group: 2.06
  Ifngr1 mean expression value relative to vehicle group: 0.23
  Irf1 mean expression value relative to vehicle group: −0.01
  Irf4 mean expression value relative to vehicle group: 0.92
  Irf5 mean expression value relative to vehicle group: 0.43
  Irf8 mean expression value relative to vehicle group: 1.46
  Mx1 mean expression value relative to vehicle group: 0.6
  Ncam1 mean expression value relative to vehicle group: −0.2
  Pml mean expression value relative to vehicle group: 0.62
  Ptpn6 mean expression value relative to vehicle group: 0.36
  Socs3 mean expression value relative to vehicle group: 0.09
  Tyk2 mean expression value relative to vehicle group: 0.36
  Vcam1 mean expression value relative to vehicle group: 0.13
[2]; [5]
  B2m mean expression value relative to vehicle group: 0.03
  Btk mean expression value relative to vehicle group: 0.06
  Cd14 mean expression value relative to vehicle group: 0.51
  Cd36 mean expression value relative to vehicle group: −0.08
  Cd74 mean expression value relative to vehicle group: 1.14
  Ctsc mean expression value relative to vehicle group: 0.82
  Ctss mean expression value relative to vehicle group: 1.2
  Cybb mean expression value relative to vehicle group: 0.8
  Fcgr1 mean expression value relative to vehicle group: 1.12
  H2-Aa mean expression value relative to vehicle group: 1.27
  H2-Ab1 mean expression value relative to vehicle group: 2.25
  H2-DMa mean expression value relative to vehicle group: 1.16
  H2-DMb2 mean expression value relative to vehicle group: 0.65
  H2-Ea-ps mean expression value relative to vehicle group: 0
  H2-Eb1 mean expression value relative to vehicle group: 1.29
  H2-K1 mean expression value relative to vehicle group: 0.04
  H2-Ob mean expression value relative to vehicle group: 1.61
  H2-Q10 mean expression value relative to vehicle group: −0.28
  Ly96 mean expression value relative to vehicle group: 0.27
  Ncf4 mean expression value relative to vehicle group: 0.86
  Psmb9 mean expression value relative to vehicle group: 0.03
  Tap1 mean expression value relative to vehicle group: 0.12
  Tlr1 mean expression value relative to vehicle group: 0.62
  Tlr2 mean expression value relative to vehicle group: 0.36
  Tlr4 mean expression value relative to vehicle group: 0.21
[2]; tumors
  expression of genes associated with cytotoxic immune cell function and T cell activation: Increased expression
